Laboratory results published in patent publication US20040014636A1, “Pharmaceutical compositions comprising a modulator of adamts-1” (priority 2000, published 2004).

Assays:
[1] = tested on: ADAMTS-1 message in THP-1 cells; experiment: Real time PCR of ADAMTS-1 message in THP-1 cells; format: cell-based, human; conditions: PMA 160 nM, 0 to 8+1 days
Description: THP-1 cells were cultured in RPMI 1640 media supplemented with 10% FBS, penicillin-Streptomycin, sodium pyruvate, and nonessential amino acids (Sigma). PMA (Sigma) was dissolved in ethanol and diluted in the medium at a final concentration of 160 nM. LDL was equilibrated in PBS and diluted to 400 μg/mL and oxidized with 10 μM CuSO4 for 2.5 hours at 37 degrees C. The mildly oxidized LDL was equilibrated in RPMI 1640 and filter sterilized.
THP-1 cells were cultured in media containing PMA for 0, 2, 4, 8, and 8+1 days. Another set of plates were incubated with PMA for 8+1 days, with the mildly oxidized LDL also present in the last day. RNA was extracted and ADAMTS-1 message was analyzed by real time PCR.

[2] = tested on: 38 amino acid peptide derived from the published cleavage site on the proteoglycan aggrecan
[3] = biological target: versican (large proteoglycan population secreted by primary human aortic smooth muscle cells) (UniProt P13611)
[4] = tested on: versican; experiment: Digestion of proteoglycans from aortic smooth muscle cells, size exclusion chromatography; format: biochemical, human; conditions: total proteoglycan from primary aortic smooth muscle cells incubated with ADAMTS-1 before size exclusion chromatography
Description: Human aortic smooth muscle cells were purchased from Clonetics (BioWhittaker) and cultured according to supplier. For preparation of total proteoglycan population (total PG), AoSMCs were seeded at 3000 cells/cm2 in SmBM2 media (4×80 cm2 flasks). 5 days later, the cells were washed with Dulbecco's PBS and BME-Diploid medium with FBS was added to the cells. 1 day later, fresh DME-Diploid medium without FBS, containing 35S-Sulfate 33 μCi/mL and 3H-Leucine 17 μCi/mL, 15 mL/bottle and incubated for 3 days. The medium was transferred and dialyzed against binding buffer containing 8M urea, 2 mM EDTA, 0.5% Triton X-100, and 20 mM Tris-HCl, pH 7.5, for 48 hours and applied to a pre-equilibrated Hi-Trap Q column. After washing with 25 mL of Elution buffer A (binding buffer+0.25 M NaCl, proteoglycan population is eluted with a linear salt gradient: 0.25-3 M NaCl in binding buffer. Total counts in each fraction were counted by liquid scintillation counting. The fractions containing PGs were pooled, dialyzed against water, lyophilized and stored at −20 degrees C. until use (‘total PG’).
Separation by size exclusion chromatography was performed using a Superdex 200 HR 10/30 from Amersham Pharmacia biotech. […] 1 mL fractions were collected and 35S measured for each fraction.

Sequence of UniProt P13611 (P13611 21-3396): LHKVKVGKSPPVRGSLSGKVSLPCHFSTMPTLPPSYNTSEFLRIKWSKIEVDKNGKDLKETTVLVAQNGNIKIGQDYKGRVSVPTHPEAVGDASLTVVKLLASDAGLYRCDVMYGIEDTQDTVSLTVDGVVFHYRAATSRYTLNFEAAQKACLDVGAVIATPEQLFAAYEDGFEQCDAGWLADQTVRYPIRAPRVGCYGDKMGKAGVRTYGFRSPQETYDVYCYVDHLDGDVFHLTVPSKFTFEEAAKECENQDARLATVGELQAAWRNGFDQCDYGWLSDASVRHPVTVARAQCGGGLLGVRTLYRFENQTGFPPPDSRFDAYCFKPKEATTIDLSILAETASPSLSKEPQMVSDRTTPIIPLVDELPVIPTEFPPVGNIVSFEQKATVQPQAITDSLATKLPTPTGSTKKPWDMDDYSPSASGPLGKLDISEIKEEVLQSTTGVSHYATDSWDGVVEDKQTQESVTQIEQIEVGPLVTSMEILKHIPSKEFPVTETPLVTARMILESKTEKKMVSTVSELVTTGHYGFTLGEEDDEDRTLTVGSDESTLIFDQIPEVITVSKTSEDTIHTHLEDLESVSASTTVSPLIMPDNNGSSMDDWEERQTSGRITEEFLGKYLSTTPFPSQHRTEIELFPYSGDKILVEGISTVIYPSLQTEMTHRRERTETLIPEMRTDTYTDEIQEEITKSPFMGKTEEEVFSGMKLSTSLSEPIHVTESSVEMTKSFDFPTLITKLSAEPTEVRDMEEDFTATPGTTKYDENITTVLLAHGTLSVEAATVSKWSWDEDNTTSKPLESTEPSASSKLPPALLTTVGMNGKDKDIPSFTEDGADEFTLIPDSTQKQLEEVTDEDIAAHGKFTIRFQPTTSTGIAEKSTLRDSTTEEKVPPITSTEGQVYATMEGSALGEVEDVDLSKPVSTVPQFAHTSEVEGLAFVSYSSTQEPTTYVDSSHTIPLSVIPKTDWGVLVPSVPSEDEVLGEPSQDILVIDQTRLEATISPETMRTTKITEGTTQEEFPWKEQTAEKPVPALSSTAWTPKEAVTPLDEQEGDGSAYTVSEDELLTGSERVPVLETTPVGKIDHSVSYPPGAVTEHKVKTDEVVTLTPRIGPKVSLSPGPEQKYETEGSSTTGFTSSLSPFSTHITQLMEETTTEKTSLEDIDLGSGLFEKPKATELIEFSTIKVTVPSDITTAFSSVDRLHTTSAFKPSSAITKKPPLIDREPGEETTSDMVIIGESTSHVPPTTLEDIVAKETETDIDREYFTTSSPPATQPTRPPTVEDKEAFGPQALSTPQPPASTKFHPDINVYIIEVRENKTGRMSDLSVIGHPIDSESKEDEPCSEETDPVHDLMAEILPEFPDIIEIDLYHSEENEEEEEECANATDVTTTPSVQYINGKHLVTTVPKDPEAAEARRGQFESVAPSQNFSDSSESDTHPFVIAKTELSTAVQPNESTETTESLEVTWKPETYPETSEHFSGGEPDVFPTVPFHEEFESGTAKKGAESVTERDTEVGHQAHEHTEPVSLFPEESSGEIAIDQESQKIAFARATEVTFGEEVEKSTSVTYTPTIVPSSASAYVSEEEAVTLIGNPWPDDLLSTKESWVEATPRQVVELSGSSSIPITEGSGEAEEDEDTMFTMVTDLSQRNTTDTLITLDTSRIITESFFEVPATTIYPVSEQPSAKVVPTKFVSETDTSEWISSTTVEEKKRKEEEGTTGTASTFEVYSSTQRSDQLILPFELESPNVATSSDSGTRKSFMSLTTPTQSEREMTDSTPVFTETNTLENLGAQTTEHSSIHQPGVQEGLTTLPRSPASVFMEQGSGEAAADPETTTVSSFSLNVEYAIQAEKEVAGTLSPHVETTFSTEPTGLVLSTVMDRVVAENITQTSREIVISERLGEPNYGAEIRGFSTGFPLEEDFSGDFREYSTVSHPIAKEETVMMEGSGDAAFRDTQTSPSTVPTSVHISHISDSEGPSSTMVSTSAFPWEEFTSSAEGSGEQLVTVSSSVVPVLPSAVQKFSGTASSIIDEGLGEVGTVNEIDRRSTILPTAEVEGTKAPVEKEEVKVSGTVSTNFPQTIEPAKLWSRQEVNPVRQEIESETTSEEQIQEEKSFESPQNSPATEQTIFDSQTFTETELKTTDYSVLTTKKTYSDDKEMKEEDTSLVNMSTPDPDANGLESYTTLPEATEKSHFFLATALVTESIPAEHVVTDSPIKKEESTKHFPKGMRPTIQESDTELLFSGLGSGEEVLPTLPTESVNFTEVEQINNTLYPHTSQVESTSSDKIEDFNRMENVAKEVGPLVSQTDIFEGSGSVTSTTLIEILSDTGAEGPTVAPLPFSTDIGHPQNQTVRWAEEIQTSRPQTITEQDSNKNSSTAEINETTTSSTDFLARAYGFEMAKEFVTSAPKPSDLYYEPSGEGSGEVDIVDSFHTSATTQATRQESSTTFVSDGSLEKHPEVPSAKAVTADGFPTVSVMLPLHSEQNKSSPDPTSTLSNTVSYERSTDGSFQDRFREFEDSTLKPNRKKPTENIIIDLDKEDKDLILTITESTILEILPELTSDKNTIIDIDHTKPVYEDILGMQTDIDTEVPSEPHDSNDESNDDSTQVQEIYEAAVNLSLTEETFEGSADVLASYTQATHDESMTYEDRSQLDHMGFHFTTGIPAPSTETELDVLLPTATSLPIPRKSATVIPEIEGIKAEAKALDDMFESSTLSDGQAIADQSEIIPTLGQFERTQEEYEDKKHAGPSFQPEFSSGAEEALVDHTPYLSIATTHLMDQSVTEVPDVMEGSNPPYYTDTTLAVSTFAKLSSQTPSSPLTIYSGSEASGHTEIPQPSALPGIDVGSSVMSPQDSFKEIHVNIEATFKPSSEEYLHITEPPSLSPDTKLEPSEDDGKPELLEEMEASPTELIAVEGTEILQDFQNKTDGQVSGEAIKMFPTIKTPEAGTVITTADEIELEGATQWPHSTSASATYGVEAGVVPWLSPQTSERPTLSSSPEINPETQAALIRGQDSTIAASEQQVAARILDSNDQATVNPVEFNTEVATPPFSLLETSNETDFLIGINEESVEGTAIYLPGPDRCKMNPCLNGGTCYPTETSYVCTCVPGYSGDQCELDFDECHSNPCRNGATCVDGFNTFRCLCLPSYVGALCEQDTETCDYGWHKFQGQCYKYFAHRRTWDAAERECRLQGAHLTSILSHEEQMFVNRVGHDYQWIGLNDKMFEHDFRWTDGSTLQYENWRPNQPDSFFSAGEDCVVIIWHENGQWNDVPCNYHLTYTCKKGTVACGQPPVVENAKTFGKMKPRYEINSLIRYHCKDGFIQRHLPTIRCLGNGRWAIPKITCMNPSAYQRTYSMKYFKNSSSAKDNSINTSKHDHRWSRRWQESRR

CCCCCCCCCCCCCC(=O)O[C@@H]1[C@@H](C)[C@@]2(O)[C@@H](C=C(CO)C[C@]3(O)C(=O)C(C)=C[C@@H]23)[C@@H]2C(C)(C)[C@]12OC(C)=O [PMA]
ADAMTS-1 message level [1]: induced

recombinant ADAMTS-1
cleavage of peptide substrate, HPLC analysis [2]: Cleavage of the peptide by recombinant ADAMTS-1 has been confirmed by HPLC analysis | size exclusion chromatography of total proteoglycan incubated with or without ADAMTS-1 [3]: In the presence of ADAMTS-1, the size of the large proteoglycan population made up primarily of versican is reduced and the size of the peak corresponding to smaller sized proteoglycan population is increased

B1: ADAMTS-1: metalloproteinase (A Disintegrin-like And Metalloprotease with Thrombospondin type 1 motif), incubated with total proteoglycan (protein)
chain: FVSSHRYVETMLVADQSMAEFHGSGLKHYLLTLFSVAARLYKHPSIRNSVSLVVVKILVIHDEQKGPEVTSNAALTLRNFCNWQKQHNPPSDRDAEHYDTAILFTRQDLCGSQTCDTLGMADVGTVCDPSRSCSVIEDDGLQAAFTTAHELGHVFNMPHDDAKQCASLNGVNQDSHMMASMLSNLDHSQPWSPCSAYMITSFLDNGHGECLMDKPQNPIQLPGDLPGTSYDANRQCQFTFGEDSKHCPDAASTCSTLWCTGTSGGVLVCQTKHFPWADGTSCGEGKWCINGKCVNKTDRKHFDTPFHGSWGMWGPWGDCSRTCGGGVQYTMRECDNPVPKNGGKYCEGKRVRYRSCNLEDCPDNNGKTFREEQCEAHNEFSKASFGSGPAVEWIPKYAGVSPKDRCKLICQAKGIGYFFVLQPKVVDGTPCSPDSTSVCVQGQCVKAGCDRIIDSKKKFDKCGVCGGNGSTCKKISGSVTSAKPGYHDIITIPTGATNIEVKQRNQRGSRNNGSFLAIKAADGTYILNGDYTLSTLEQDIMYKGVVLRYSGSSAALERIRSFSPLKEPLTIQVLTVGNALRPKIKYTYFVKKKKESFNAIPTFSAWVIEEWGECSKSCELGWQRRLVECRDINGQPASECAKEVKPASTRPCADHPCPQWQLGEWSSCSKTCGKGYKKRSLKCLSHDGGVLSHESCDPLKKPKHFIDFCTMAECS
cleavage of large proteoglycan population (versican) [4]: the size of the large proteoglycan peak is diminished
